According to article PMC5453731 (Cell chemical biology, 2017):

T1: Rpn1^PC1 (Rpn1^391–642) (yeast (BY4741), UniProt P38764 391-642)
T1 sequence (looked up): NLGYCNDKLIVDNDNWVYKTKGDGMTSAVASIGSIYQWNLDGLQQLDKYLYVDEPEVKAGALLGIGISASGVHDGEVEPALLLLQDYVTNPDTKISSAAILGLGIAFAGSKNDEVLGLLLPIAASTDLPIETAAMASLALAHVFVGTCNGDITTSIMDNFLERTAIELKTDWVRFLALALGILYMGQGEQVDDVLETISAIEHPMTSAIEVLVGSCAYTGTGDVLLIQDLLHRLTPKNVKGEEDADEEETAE


biological target: T1, Rpn1^PC1 (Rpn1^391–642); test: NMR titration

Kd | Binder
280 ± 20 µM | Rub1 (natural protein, yeast (BY4741), UniProt Q03919 1-77, looked up, 15N-labelled) MIVKVKTLTGKEISVELKESDLVYHIKELLEEKEGIPPSQQRLIFQGKQIDDKLTVTDAHLVEGMQLHLVLTLRGG
22 ± 12 µM | Dsk2^UBL (domain or fragment, yeast (BY4741), UniProt P48510 1-76, looked up) MSLNIHIKSGQDKWEVNVAPESTVLQFKEAINKANGIPVANQRLIYSGKILKDDQTVESYHIQDGHSVHLVKSQPK
40 ± 31 µM | Ubp6^UBL (domain or fragment, yeast (BY4741), UniProt P43593 1-80, looked up, 15N-labelled) MSGETFEFNIRHSGKVYPITLSTDATSADLKSKAEELTQVPSARQKYMVKGGLSGEESIKIYPLIKPGSTVMLLGTPDAN
